Article PMC7734621

Molecular target: Minerva virus protease (MVpro), NS6 3C-like protease of a GII.4 norovirus (Minerva virus (norovirus GII.4, 2006b variant))
Experiment: SEC

Minerva virus protease (MVpro), NS6 3C-like protease of a GII.4 norovirus (enzyme)
stoichiometry N: 2
